In paper PMC6002344:
Ends that are not written are not given here. * marks the point of attachment. Dansyl = CN(C)c1cccc2c(S(=O)(=O)*)cccc12

Biological target: PDZ1 NHERF1 Y38W
Assay: FRET or BRET; equilibrium fluorescence titration, FRET between Trp38 (donor) and dansyl (acceptor), excitation 280 nm; 50 mM Na phosphate, pH 7.2, 300 mM NaCl, 5 mM DTT, 20% DMSO, 25 °C; without RS5517

Kd: 10 µM
Binder: Dansyl-NDSLL [Dansyl-NDSLL, dansylated peptide of the C-terminal sequence of the β2-adrenergic receptor]
